Assay results published in US20240092841A1.

Tests used:
Assay in all cases: co-IP with agarose-bound AvFc from H460 whole-cell lysate, mass spectrometry
[1] = molecular target: Myoferlin (Q9NZM1-2) (human) (UniProt Q9NZM1)
[2] = molecular target: Endothelial protein C receptor (human) (UniProt Q9UNN8)
[3] = molecular target: Solute carrier family 12 member 7 (human) (UniProt Q9Y666)
[4] = molecular target: Laminin subunit alpha-5 (human) (UniProt O15230)
Integrin alpha-1 (human) = Integrin alpha-1 (human) (UniProt P56199)
[5] = molecular target: Scavenger receptor class B member 1 (human) (UniProt Q8WTV0)
Integrin alpha-2 (human) = Integrin alpha-2 (human) (UniProt P17301)
[6] = molecular target: Attractin (O75882-2) (human) (UniProt O75882)
[7] = molecular target: Protocadherin Fat 1 (human) (UniProt Q14517)
[8] = molecular target: 4F2 cell-surface antigen heavy chain (human) (UniProt P08195)
[9] = molecular target: Laminin subunit gamma-1 (human) (UniProt P11047)
[10] = molecular target: Transferrin receptor protein 1 (human) (UniProt P02786)
[11] = molecular target: Niemann-Pick C1 protein (human) (UniProt O15118)
[12] = molecular target: Galectin-3-binding protein (human) (UniProt Q08380)
Nidogen-2 (human) = Nidogen-2 (human) (UniProt Q14112)
Renin receptor (human) = Renin receptor (human) (UniProt O75787)
[13] = molecular target: Cation-dependent mannose-6-phosphate receptor (human) (UniProt P20645)
[14] = molecular target: ATP-binding cassette sub-family A member 2 (human) (UniProt Q9BZC7)
[15] = molecular target: Synaptonemal complex protein SC65 (human) (UniProt Q92791)
[16] = molecular target: Sortilin-related receptor (human) (UniProt Q92673)
[17] = molecular target: Neutral amino acid transporter B (0) (human) (UniProt Q15758)
[18] = molecular target: Neural cell adhesion molecule L1 (human) (UniProt P32004)
[19] = molecular target: Epidermal growth factor receptor (human) (UniProt P00533)
[20] = molecular target: Urokinase plasminogen activator surface receptor (human) (UniProt Q03405)
[21] = molecular target: Scavenger receptor class A member 5 (human) (UniProt Q6ZMJ2)
[22] = molecular target: Secretory carrier-associated membrane protein 3 (human) (UniProt O14828)

Chain of UniProt P08195 (P08195 103-630 limits assumed): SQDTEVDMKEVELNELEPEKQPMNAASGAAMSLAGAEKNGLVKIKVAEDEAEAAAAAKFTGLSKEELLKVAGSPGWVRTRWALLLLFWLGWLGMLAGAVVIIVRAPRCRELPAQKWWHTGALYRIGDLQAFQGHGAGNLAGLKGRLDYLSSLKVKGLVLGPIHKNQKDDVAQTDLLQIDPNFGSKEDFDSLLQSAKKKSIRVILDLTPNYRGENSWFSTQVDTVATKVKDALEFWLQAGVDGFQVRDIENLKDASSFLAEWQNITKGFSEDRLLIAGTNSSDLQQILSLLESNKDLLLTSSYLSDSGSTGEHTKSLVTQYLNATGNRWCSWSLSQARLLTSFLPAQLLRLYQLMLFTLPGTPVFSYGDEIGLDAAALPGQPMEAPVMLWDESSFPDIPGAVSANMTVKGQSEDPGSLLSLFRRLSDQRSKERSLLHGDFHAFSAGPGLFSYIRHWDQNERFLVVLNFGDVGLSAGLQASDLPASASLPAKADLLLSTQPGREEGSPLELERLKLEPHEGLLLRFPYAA
Chain of UniProt Q08380 (Q08380 19-585 limits assumed): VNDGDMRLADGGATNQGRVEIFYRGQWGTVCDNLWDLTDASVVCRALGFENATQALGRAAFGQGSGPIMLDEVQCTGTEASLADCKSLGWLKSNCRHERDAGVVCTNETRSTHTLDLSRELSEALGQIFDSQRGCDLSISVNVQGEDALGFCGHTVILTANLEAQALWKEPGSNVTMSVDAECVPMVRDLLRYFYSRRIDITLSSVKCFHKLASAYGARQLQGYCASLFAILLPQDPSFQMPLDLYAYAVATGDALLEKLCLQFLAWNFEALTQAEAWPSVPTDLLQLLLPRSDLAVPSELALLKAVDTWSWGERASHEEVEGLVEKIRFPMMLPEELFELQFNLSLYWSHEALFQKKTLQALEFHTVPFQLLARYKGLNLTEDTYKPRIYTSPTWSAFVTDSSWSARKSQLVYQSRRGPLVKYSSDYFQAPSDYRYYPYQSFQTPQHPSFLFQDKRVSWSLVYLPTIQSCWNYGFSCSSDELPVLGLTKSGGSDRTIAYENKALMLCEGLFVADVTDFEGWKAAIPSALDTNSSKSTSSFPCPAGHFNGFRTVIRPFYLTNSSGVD
Chain of UniProt Q03405 (Q03405 other isoform, or with tags, fused parts or gaps limits assumed): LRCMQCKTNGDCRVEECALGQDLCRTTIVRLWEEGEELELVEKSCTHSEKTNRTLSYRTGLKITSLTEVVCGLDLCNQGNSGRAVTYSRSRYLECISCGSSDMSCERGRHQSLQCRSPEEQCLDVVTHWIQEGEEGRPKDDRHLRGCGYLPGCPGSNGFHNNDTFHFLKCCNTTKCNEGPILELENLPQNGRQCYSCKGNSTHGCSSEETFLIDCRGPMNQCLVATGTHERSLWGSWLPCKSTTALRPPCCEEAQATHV
Chain of UniProt O15230 (O15230 36-3695 limits assumed): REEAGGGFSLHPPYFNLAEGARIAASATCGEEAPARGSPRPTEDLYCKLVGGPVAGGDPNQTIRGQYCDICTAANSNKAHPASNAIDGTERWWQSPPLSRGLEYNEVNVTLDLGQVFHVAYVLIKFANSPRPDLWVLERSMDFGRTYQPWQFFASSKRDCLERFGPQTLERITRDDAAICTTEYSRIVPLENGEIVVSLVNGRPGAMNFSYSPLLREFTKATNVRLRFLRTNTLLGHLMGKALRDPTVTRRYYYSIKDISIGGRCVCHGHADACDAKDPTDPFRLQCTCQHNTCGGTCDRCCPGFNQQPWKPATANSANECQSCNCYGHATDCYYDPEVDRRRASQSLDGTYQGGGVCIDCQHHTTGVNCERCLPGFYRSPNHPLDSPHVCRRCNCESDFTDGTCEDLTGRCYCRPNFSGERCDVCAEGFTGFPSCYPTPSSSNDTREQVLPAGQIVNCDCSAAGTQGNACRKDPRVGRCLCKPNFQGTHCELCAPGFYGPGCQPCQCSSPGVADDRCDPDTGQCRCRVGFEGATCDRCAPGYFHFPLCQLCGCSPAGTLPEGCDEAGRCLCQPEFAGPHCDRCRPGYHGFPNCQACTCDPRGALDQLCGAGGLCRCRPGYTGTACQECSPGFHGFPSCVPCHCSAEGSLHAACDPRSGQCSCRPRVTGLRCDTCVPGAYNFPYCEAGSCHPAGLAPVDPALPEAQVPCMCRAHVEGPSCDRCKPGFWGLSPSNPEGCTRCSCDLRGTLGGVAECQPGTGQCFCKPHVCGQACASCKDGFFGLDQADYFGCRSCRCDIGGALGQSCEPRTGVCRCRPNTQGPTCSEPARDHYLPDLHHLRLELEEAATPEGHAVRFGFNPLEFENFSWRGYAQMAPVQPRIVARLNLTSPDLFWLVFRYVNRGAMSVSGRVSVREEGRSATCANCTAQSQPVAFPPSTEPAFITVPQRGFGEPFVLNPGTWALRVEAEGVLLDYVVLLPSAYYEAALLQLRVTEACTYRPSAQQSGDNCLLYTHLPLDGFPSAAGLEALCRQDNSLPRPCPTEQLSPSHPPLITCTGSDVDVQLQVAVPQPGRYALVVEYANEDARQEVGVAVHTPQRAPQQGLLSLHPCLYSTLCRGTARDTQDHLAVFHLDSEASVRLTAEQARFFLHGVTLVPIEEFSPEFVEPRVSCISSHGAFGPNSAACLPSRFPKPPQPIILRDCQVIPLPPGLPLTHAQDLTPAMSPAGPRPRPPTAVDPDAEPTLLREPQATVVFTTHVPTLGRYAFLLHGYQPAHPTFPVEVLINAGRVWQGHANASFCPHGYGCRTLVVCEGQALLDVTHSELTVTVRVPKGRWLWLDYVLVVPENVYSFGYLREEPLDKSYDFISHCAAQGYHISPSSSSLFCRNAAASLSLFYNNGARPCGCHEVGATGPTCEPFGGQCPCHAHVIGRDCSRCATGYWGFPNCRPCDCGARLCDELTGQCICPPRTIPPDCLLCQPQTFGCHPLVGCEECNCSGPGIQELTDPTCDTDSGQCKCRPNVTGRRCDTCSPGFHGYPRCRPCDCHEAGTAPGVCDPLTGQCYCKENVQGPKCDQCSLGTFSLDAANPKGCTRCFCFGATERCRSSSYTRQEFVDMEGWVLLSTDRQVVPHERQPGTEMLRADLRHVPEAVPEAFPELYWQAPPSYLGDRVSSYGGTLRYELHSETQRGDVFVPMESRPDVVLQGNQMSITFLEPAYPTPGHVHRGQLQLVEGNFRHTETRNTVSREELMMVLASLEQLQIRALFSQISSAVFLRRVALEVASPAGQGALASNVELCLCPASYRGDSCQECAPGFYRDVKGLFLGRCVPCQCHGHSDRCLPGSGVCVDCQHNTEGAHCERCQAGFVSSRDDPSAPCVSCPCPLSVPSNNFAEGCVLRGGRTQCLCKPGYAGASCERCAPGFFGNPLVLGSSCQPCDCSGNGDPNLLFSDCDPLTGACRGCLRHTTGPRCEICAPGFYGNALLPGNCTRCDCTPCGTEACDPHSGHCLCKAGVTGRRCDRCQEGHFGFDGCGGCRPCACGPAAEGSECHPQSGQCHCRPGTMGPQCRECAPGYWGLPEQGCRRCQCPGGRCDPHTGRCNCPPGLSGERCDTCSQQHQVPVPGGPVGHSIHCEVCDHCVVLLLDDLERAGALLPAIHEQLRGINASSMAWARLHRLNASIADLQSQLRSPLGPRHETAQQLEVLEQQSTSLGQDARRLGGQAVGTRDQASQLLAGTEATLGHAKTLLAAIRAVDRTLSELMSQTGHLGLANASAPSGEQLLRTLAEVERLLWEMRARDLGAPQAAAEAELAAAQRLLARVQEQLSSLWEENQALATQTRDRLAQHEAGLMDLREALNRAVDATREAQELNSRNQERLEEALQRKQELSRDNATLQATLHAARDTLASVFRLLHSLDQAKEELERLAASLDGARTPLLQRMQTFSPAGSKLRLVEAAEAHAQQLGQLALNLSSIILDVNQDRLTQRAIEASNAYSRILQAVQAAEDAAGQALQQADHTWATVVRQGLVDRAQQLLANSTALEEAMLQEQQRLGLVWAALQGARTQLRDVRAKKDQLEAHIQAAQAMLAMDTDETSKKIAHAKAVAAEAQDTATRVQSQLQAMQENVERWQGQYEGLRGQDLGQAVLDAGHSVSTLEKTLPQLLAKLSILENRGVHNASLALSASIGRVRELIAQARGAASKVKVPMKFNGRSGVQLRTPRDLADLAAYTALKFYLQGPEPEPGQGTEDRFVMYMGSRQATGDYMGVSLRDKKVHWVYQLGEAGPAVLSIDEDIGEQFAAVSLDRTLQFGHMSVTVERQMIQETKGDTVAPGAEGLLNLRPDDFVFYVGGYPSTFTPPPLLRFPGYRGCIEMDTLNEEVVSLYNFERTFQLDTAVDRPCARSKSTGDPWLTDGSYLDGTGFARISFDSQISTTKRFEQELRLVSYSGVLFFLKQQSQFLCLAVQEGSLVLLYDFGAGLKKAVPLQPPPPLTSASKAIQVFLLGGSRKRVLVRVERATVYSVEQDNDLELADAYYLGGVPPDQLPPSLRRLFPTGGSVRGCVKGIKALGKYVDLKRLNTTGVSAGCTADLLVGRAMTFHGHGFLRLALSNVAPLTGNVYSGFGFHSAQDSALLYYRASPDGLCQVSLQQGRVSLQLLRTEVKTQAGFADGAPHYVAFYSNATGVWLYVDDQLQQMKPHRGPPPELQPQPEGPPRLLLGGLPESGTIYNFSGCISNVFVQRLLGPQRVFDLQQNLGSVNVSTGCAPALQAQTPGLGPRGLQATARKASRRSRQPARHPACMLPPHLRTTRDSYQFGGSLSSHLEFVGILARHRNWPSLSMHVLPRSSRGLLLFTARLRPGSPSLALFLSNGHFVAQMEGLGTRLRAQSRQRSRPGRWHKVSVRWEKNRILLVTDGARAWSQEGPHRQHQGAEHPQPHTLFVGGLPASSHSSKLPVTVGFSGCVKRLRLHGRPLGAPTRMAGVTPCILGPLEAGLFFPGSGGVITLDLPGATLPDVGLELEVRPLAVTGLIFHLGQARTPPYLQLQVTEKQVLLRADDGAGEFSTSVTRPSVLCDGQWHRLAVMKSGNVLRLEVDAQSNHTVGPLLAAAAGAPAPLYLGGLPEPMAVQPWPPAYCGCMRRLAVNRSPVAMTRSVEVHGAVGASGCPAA

Substance Avaren-Fc (AvFc) (Fc fusion) has a Percentage of Total Spectra (%) [1] of 0.11%, a Percentage of Total Spectra (%) [2] of 0.033% and a Percentage of Total Spectra (%) [3] of 0.0083%. The Percentage of Total Spectra (%) [4] was 0.23%, the Percentage of Total Spectra (%) (Integrin alpha-1 (human)) was 0.13% and the Percentage of Total Spectra (%) [5] was 0.15%. For the same substance, the Percentage of Total Spectra (%) (Integrin alpha-2 (human)) was 0.0083%, the Percentage of Total Spectra (%) [6] was 0.058% and the Percentage of Total Spectra (%) [7] was 0.058%. It also gave a Percentage of Total Spectra (%) [8] of 0.091%, a Percentage of Total Spectra (%) [9] of 0.83% and a Percentage of Total Spectra (%) [10] of 0.21%. For the same substance, the Percentage of Total Spectra (%) [11] was 0.066%, the Percentage of Total Spectra (%) [12] was 0.17% and the Percentage of Total Spectra (%) (Nidogen-2 (human)) was 0.066%. It also gave a Percentage of Total Spectra (%) (Renin receptor (human)) of 0.066%, a Percentage of Total Spectra (%) [13] of 0.025% and a Percentage of Total Spectra (%) [14] of 0.21%. The Percentage of Total Spectra (%) [15] was 0.066%, the Percentage of Total Spectra (%) [16] was 0.058% and the Percentage of Total Spectra (%) [17] was 0.05%. The Percentage of Total Spectra (%) [18] was 0.099%, the Percentage of Total Spectra (%) [19] was 0.058% and the Percentage of Total Spectra (%) [20] was 0.066%. For the same substance, the Percentage of Total Spectra (%) [21] was 0.099% and the Percentage of Total Spectra (%) [22] was 0.083%.
